From patent US20250082727A1, “CXCL14-BASED COMPOSITIONS AND METHOD FOR ENHANCING CARTILAGE REGENERATION” (FAR EASTERN MEMORIAL HOSPITAL, priority 2023, published 2025)

Assays:
3D ADSC spheroids = assay: Immunofluorescence staining of chondrogenic proteins in 3D ADSC spheroids; format: cell-based; details: 3D culture
Protocol: MSC spheroids were fixed with 4% paraformaldehyde (PFA) (PH 7.2) in PBS for 30 minutes at room temperature. The samples were then washed with PBS to remove the PFA. Next, the spheroids were carefully transferred into ice-cold methanol and incubated at −40° C. for 25 minutes. Following fixation, the spheroids were treated with 1 mg/mL sodium borohydride to clean them, and then washed with PBS. After washing, the spheroids were incubated in a blocking solution containing 10% normal rabbit serum and 1x PBS with 0.1% sodium azide for 6 hours or overnight. The samples were then incubated with primary antibodies against Collagen type II (ab34712, Abcam), SOX9 (ab185966, Abcam), COMP (sc-374660, Santa Cruz), and Aggrecan (MA3-16888, Invitrogen) for 24 hours at 4° C. Subsequently, the samples were incubated with Alexa Fluor 488-, Alexa Fluor 555-, or Alexa Fluor 647-conjugated secondary antibodies for 1 hour at room temperature. Fluorescence images were acquired using a Leica SP8 STED confocal microscope.

ADSC = assay: Real-time PCR of chondrogenic genes in treated ADSCs; format: cell-based, human
Protocol: (§1) To obtain a 3D pellet culture, 1×10^5 MSCs were centrifuged at 1200 rpm for 3 min in polypropylene tubes and cultured for 1 day. To induce chondrogenesis, the pelleted cells were cultured in DMEM-HG (Gibco, cat. no. 121000) containing 1% ITS-Premix (Corning, cat. no. 354352), 1% penicillin streptomycin (Gibco, cat. no. 15240), 1 mM sodium pyruvate (Gibco, cat. no. 11360070), 0.35 mM proline (Sigma-Aldrich, cat. no. P5607), 10 ng/mL TGF-β1 (SinoBio, cat. no. 10804-HNAC), 0.17 mM ascorbic acid 2-phosphate (Sigma-Aldrich, cat. no. A8960), and 100 nM dexamethasone (Sigma-Aldrich, cat. no. D4902). After induction, the chondrogenic differentiation results were evaluated on days 1, 7, 14, and 21.
To identify functional peptide sequences within the CXCL14 protein that enhance chondrogenesis, an CXCL14 peptide (CXCL14-P), which has the amino acid sequence set forth in SEQ ID NO: 2, was used for interacting with CXCR4. […]
MSC-EVs have been reported to have potential for tissue repair; however, naive EVs lack the enhanced capacity to stimulate chondrogenesis and cartilage repair. […] On day 7, ADSCs treated with CXCL14-P-MSC-EVs were analyzed for the expression of SOX9, COL2A1, ACAN, COMP, SOSTDC1, and ITGB1 genes […] using real-time PCR.

human ADSCs = assay: Flow cytometry of chondrogenic markers in ADSCs; format: cell-based; details: third day of differentiation
Protocol: (§2) To further verify the presence of chondrogenic proteins in response to CXCL14-P treatment, ADSCs were analyzed during chondrogenesis using biomarkers such as SOX9, Collagen type II, COMP, and CXCR4. On the third day of differentiation, flow cytometry was used to assess these specific chondrogenic markers. […] ADSCs were monitored until day 7, with cellular uptake of FAM-CXCL14-P observed using fluorescence microscopy, the results were shown in FIG. 7E.

ADSC pellets = assay: Alcian blue staining of ADSC pellets; format: cell-based
Protocol: as §1, §2

[1] = test system: IPFP-MSC from OA patients; assay: Alcian blue staining of GAG during chondrogenesis of IPFP-MSC pellets; format: cell-based, human; details: day 3
Protocol: The IPFP tissue was washed repeatedly with Dulbecco's phosphate-buffered saline (Gibco, cat. no. 21600) containing 5% penicillin-streptomycin and amphotericin B solution (Gibco, cat. no. 15240). The tissue was minced and subjected to enzymatic digestion with 0.1% type I collagenase (Gibco, cat. no. 17100017) diluted in minimum essential medium α (α-MEM, Gibco, cat. no. 120000) and 1% bovine serum albumin (Sigma, cat. no. A7906) for 18 h at 37° C. After digestion, an equal amount of culture medium containing 10% fetal bovine serum was added to stop collagenase activity. The cell solution was sieved through a 100-μm mesh and centrifuged at 500 g for 5 min. The cell pellets were resuspended in culture medium (supplemented with 10% FBS, 1% penicillin-streptomycin, and amphotericin B) and seeded in a 10-cm culture dish. The medium was changed every 72 h until the cells reached 80%-90% confluence.
To obtain a 3D pellet culture, 1×10^5 MSCs were centrifuged at 1200 rpm for 3 min in polypropylene tubes and cultured for 1 day. […]
CXCL14 was analyzed to determine the stimulation of chondrogenesis and cartilage regeneration. CXCL14 was also analyzed to determine whether CXCL14 can induce chondrogenesis by using IPFP-MSC from OA patients treated with the recombinant protein CXCL14 and investigating the glycosaminoglycan (GAG) content by Alcian blue staining. […]

ACLT-induced OA = assay: ACLT-induced knee OA mouse model (Safranin O, collagen II IHC, OARSI score); format: in vivo, C57BL/6 mice; details: for OARSI score: ACLT mice, ACLT group 5.5, sham 0.17
Excerpt: Surgical ACLT is the most commonly used for generating an animal model of OA. In this study, 8-week-old specific-pathogen-free C57BL/6 mice were subjected to ACLT and medial collateral ligament (MCL) transection for establishing an OA mouse model (n=6). First, the knee joints of the hind limbs were incised along the medial edge of the patellar ligament. After the joint capsule was exposed, the ACL and MCL were transected. […] After deparaffinization, the sections were stained with hematoxylin for 3 min and differentiated in 1% acid alcohol for 15 s, followed by staining in 0.02% aqueous fast green for 3 min and counterstaining with 0.1% Safranin O for 3 min. Finally, the sections were dehydrated in serial dilutions of ethanol, cleared in xylene, mounted onto glass slides by using neutral gum. Each stained area was observed under a light microscope and photographed using a photomicroscope equipped with a CCD video camera.

[2] = test system: CXCL14, SOX9, COL2A1, and ACAN mRNA expressions; assay: Real-time PCR of chondrogenic genes under TGF-b stimulation during chondrogenesis; format: cell-based; details: under a low dose of TGF-β stimulation
Protocol: as §1
To better understand the molecular mechanism relating to the control of chondrogenesis modulated by CXCL14, the chondrogenic gene expressions were investigated during chondrogenesis.

SOSTDC1 = assay: qPCR validation of SOSTDC1 after CXCL14 treatment during MSC chondrogenesis; format: cell-based, human

Molecule | expressions of SOX9, Collagen type II, and Aggrecan (immunofluorescence) (3D ADSC spheroids) | CXCL14, SOX9, and COL2A1 gene expression (ADSC; ADSC, real-time PCR on day 7, compared to CXCL14 protein) | SOX9, COL2A1, COMP, and ACAN gene expression (ADSC; one-day treatment then fresh medium, real-time PCR on day 7) | chondrogenic potential (SOX9, Collagen type II, COMP, CXCR4 markers) (human ADSCs) | GAG content (Alcian blue staining) (ADSC pellets; ADSC pellets during chondrogenesis) | GAG deposition (Alcian blue staining) (ADSC pellets; ADSC pellets with varying ratios, day 7) | GAG deposition (Alcian blue staining) [1] | OARSI score (ACLT-induced OA; CXCL14 10 ng) | OARSI score (ACLT-induced OA; CXCL14 20 ng) | cartilage repair, staining GAG content and type II collagen (ACLT-induced OA; ACLT-induced OA model) | CXCL14, SOX9, COL2A1, and ACAN gene expression [2] | SOSTDC1 expression (qPCR) (SOSTDC1; IPFP-MSCs from OA donors) | SOSTDC1 expression (qPCR) (SOSTDC1; human ADSCs from non-OA donors)
CXCL14-P: CXCL14 peptide with the amino acid sequence SEQ ID NO: 2, produced through solid-phase peptide synthesis (ITTKSVSRYRGQEH; listed as Homo sapiens) | consistent results | stronger chondrogenic gene expression compared to the protein | significantly induced | enhances the chondrogenic potential | higher GAG content | increased GAG deposition | – | – | – | – | – | – | –
CXCL14: small cytokine of the CXC chemokine family, Homo sapiens CXCL14, amino acid sequence SEQ ID NO: 1 (protein, listed as Homo sapiens) MSLLPRRAPPVSMRLLAAALLLLLLALYTARVDGSKCKCSRKGPKIRYSDVKKLEMKPKYPHCEEKMVIITTKSVSRYRGQEHCLHPKLQSTKRFIKWYNAWNEKRRVYEE | elevate | – | – | – | – | – | increased | 2.7 | 1 | dose-dependent stimulated cartilage repair | induce | upregulated expression | upregulated expression
